Tests used:
cblb_human CBLB [1] = target: cblb_human CBLB (UniProt Q13191)
cblb_human CBLB [2] = target: cblb_human CBLB (UniProt Q13191); remark: listed apart in the source
cblb_human CBLB [3] = target: cblb_human CBLB (UniProt Q13191); remark: listed apart in the source
cblb_human CBLB [4] = target: cblb_human CBLB (UniProt Q13191); remark: listed apart in the source

Sequence of cblb_human CBLB (Q13191 whole entry): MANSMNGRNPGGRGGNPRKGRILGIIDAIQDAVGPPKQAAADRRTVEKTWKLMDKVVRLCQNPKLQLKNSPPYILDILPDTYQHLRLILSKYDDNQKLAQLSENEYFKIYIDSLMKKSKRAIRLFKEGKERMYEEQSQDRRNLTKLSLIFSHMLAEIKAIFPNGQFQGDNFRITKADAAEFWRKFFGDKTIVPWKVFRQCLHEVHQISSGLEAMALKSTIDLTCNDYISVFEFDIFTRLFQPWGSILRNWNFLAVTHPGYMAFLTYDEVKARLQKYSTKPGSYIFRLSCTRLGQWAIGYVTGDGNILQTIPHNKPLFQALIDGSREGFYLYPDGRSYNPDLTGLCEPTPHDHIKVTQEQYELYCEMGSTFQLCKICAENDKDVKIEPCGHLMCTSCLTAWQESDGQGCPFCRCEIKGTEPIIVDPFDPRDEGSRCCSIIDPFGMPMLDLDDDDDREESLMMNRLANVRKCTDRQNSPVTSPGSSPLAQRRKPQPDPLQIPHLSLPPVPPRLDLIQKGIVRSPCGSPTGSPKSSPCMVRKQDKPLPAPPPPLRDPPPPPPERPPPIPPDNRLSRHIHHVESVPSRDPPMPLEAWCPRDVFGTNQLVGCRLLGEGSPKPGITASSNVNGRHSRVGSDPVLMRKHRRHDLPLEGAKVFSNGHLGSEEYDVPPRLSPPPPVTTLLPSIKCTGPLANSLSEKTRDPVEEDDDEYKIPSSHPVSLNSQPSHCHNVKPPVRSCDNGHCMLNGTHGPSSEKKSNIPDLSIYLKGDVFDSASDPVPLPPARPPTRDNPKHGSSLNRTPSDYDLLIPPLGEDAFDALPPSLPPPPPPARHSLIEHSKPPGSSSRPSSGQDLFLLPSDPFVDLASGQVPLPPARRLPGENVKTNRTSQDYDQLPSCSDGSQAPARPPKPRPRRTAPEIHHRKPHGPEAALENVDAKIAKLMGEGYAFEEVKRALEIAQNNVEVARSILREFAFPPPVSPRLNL

## SH2/SH3 adapter protein NCK1 (Homo sapiens) (from UniProt P16333) W229K
cblb_human CBLB [1]
  effect of a mutation on the interaction: disrupting interaction

## SH2/SH3 adapter protein NCK1 (Homo sapiens) (from UniProt P16333) W143K
cblb_human CBLB [2]
  effect of a mutation on the interaction: disrupting interaction

## SH2/SH3 adapter protein NCK1 (Homo sapiens) (from UniProt P16333) W38K
cblb_human CBLB [3]
  effect of a mutation on the interaction: disrupting interaction

## SH2/SH3 adapter protein NCK1 (Homo sapiens) (from UniProt P16333) W38K;W143K;W229K
cblb_human CBLB [4]
  effect of a mutation on the interaction: disrupting interaction

Source: IntAct's records for PubMed 25218436
